# In patent US20250129140A1 (ICAHN SCHOOL OF MEDICINE AT MOUNT SINAI, published 2025):
# B1: 5C3 (antibody, V domains shown)
# VH: QVQLQQPGAELVRPGASVKLSCKASGYTFTTYWMNWVKQRPGQGLEWIGMIDPSDSETHYNQMFKDKATLTVDTSSSTAYMQLSSLTSEDSAVYYCARGRSWFVYWGQGTLVTVSS
# VL: DIVLTQSPASLAVSLGQRATISCRASKSVSSSGYSYVHWYQQKPGQPPKLLIYLASNLESGVPARFSGSGSGTDFTLNIHSVEEEDAATYYCQHNRELPYTFGGGTKLEIKR
# B2: 13G1 (antibody, V domains shown)
# VH: QVTLKESGPVLVKPTETLTLTCTVSGFSLYNARMGVTWIRQPPGKALEWLAHIFSNDERSYTSSLKNRLTISKDTSKSQVVLTMTNMDPVDTATYYCARIDYSNYIGNWFDPWGQGTLVTVSS
# VL: DIQMTQSPSSLSASVGDRVTITCRASQSISNYLNWYQQKPGKAPKLLIYAASSLQGGVPSRFSGSGSGTDFTLTISSLQPEDFTTYYCQQSYSTPFTFGGGTKVEIK
# notes: also called 13G1 (ms); anti-gH mAb 13G1
# B3: 9A12 (antibody, V domains shown)
# VH: EVQLVESGGVLVQPGGSLRLSCAASGFTFSSHEMNWVRQAPGKGLEWISYISSTGSTIYDADSVKGRFTISRDNAKNSLYLQMNSLRAEDTAVYYCARSSGWYRNYSYGMDVWGQGTTVTVSS
# VL: DIQMAQSPSSLSASVGDRVTITCRASQGIYNYLAWFQQKPGKAPKSLIYAASSLQTGVPSKFSGSGSGTDFTLTISNLQPEDFATYYCQQYNSFPRTFGQGTKVEIK
# notes: also called 9A12 (ms); anti-gH mAb 9A12
# B4: 14E1 (antibody, V domains shown)
# VH: QVQLVQSGAEVKKPGASVKVSCKASGYTFTSYSISWVRQAPGQGLEWMGWINTYNGNTNYAQRVQARVTMTTDTSTSTAYMELRSLRSDDTAVYYCARDHGFFFDYWGQGNLVTVSS
# VL: DIQLTQSPSFLSASVGDRVTITCWASQGISSYLAWYQQKPGKAPKLLIYAASTLQSGVPSRFSGSGSGTEFTLTISSLQPEDFATYYCQQLNSYPYTFGQGTQLEIK
# notes: also called 14E1 (ms)
# B5: 15G11 (antibody, V domains shown)
# VH: QVQLQESGPGLVKPSQTLSLTCTVSGGSISSGYYYWNWIRQHPGKGLECIGYIYYSGTTYYNPSLKSRLFISVDTSKNQFSLKLRSVTAADTAVYYCARGGLGAFDIWGQGTMVTVSS
# VL: EIVLTQSPGTLSLSPGERATLSCRASQSVSSSYLAWYQQKPGQAPRLLIYGASSRAPGIPDRFSGTGSGTDFTLTISRLEPEDFAVYYCQQYGISPLTFGGGTKVEIK
# notes: also called 15G11 (ms); anti-gH mAb 15G11
# Legend:
# [1] = target: gH/gL of HCMV strain AD169 (on virus AD169 and on reporter virus AD169R) (human cytomegalovirus (strain AD169), UniProt P12824 24-743; P16832 31-278); assay: flow cytometry on ARPE-19 cells infected with AD169R (GFP reporter), 6 dpi, antibody 2 µg/mL, anti-mouse AF647 secondary
# [2] = target: T1, gH/gL of HCMV strain AD169 (on virus AD169 and on reporter virus AD169R) (human cytomegalovirus (strain AD169), UniProt P12824 24-743; P16832 31-278); assay: cell-based or functional assay
# [3] = target: T2, gH/gL of HCMV strain TB40/E (on virus) (human cytomegalovirus (strain TB40/E)); assay: cell-based or functional assay
# [4] = target: T1, gH/gL of HCMV strain AD169 (on virus …); assay: cell-based or functional assay; remark: listed apart in the source
# [5] = target: T2, gH/gL of HCMV strain TB40/E (on virus); assay: cell-based or functional assay; remark: listed apart in the source
# [6] = target: T1, gH/gL of HCMV strain AD169 (on virus …); assay: cell-based or functional assay; remark: listed apart in the source
# [7] = target: gH/gL of HCMV strain TR (on virus) (human cytomegalovirus (strain TR)); assay: cell-based or functional assay
# [8] = target: gH/gL of HCMV strain Towne (on virus) (human cytomegalovirus (strain Towne), UniProt P17176 30-742); assay: cell-based or functional assay
# gH/gL of HCMV strain Towne (on virus), sequence (P17176 30-742): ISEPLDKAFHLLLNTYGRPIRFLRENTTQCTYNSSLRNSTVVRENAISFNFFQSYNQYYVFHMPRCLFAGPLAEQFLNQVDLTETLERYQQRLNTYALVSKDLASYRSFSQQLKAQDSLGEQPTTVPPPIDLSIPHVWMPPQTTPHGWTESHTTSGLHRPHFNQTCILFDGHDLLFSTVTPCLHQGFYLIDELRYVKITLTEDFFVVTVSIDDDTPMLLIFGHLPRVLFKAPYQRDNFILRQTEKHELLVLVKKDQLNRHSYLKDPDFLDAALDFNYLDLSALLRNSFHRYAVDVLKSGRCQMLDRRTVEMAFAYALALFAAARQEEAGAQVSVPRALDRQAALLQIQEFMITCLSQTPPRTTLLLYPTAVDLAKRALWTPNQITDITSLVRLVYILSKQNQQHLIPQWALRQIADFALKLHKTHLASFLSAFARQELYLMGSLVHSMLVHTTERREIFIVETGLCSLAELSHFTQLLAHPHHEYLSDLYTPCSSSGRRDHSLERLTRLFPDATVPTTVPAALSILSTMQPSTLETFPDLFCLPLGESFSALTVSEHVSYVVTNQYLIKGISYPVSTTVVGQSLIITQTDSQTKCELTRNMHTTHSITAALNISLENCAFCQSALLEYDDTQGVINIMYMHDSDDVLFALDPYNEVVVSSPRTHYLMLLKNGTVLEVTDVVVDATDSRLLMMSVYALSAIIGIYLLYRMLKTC
# [9] = target: T2, gH/gL of HCMV strain TB40/E (on virus); assay: cell-based or functional assay; remark: listed apart in the source
# [10] = target: T1, gH/gL of HCMV strain AD169 (on virus …); assay: cell-based or functional assay; remark: listed apart in the source
# [11] = target: T3, recombinant HCMV pentamer (strain VR1814) consisting of gH, gL, UL128, UL130 and UL131A (human cytomegalovirus (strain VR1814)); assay: BLI (Octet RED); antibody captured on anti-mouse Fc (AMC) biosensor, recombinant pentamer 100 µg/mL in solution; 1:1 model
# T3 construct: also called recombinant pentamer; Native Antigen CMV-PENT-100
# [12] = target: T1, gH/gL of HCMV strain AD169 (on virus …); assay: flow cytometry on ARPE-19 cells infected with AD169R (GFP reporter), 6 dpi, antibody 2 µg/mL, anti-mouse AF647 secondary; remark: listed apart in the source
Binder,"Q2, percent of cells GFP+ and Alexa Fluor 647+ [1]",neutralization of BADrUL131-C4 infection at the highest concentrations [2],"IC50(ARPE-19) TB40/E, virus neutralization [3]","IC50(HTR-svNeo) TB40/E, virus neutralization [3]","IC50(ARPE-19) AD169R, virus neutralization [4]","IC50(HTR-svNeo) AD169R, virus neutralization [4]","IC50(MRC5/NHDF) TB40/E, virus neutralization [5]","IC50(MRC5/NHDF) AD169, virus neutralization [6]","IC50(MRC5/NHDF) AD169R, virus neutralization [6]","IC50(MRC5/NHDF) TR, virus neutralization [7]","IC50(MRC5/NHDF) Towne, virus neutralization [8]","IC50(THP-1) TB40/E, virus neutralization [9]","IC50(THP-1) AD169R, virus neutralization [10]",Kd [11],koff [11],kon [11],"Q2, percent of cells GFP+ and Alexa Fluor 647+ [12]","IC50 of infection, AD169R neutralization (murine constant regions) [2]"
B1,3.37%,–,–,–,–,–,–,–,–,–,–,–,–,–,–,–,–,–
B2,–,> 90%,1.01 µg/mL,1.12 µg/mL,1.03 µg/mL,1.82 µg/mL,0.89 µg/mL,15.9 µg/mL,0.58 µg/mL,3.26 µg/mL,1.09 µg/mL,0.02 µg/mL,0.03 µg/mL,5.05 nM,6.51e-05 s⁻¹,12900 M⁻¹ s⁻¹,0.89%,–
B3,–,> 90%,1.1 µg/mL,0.72 µg/mL,1.28 µg/mL,~1.8 µg/mL,1.09 µg/mL,0.77 µg/mL,1.52 µg/mL,6.96 µg/mL,2.53 µg/mL,–,0.08 µg/mL,3.47 nM,8.6e-05 s⁻¹,24800 M⁻¹ s⁻¹,–,–
B4,–,–,3.06 µg/mL,> 50 µg/mL,0.11 µg/mL,19.2 µg/mL,0.89 µg/mL,0.91 µg/mL,1.78 µg/mL,> 50 µg/mL,> 50 µg/mL,–,0.02 µg/mL,64.6 nM,0.00158 s⁻¹,24400 M⁻¹ s⁻¹,3.68%,–
B5,–,> 90%,0.09 µg/mL,0.41 µg/mL,0.24 µg/mL,0.44 µg/mL,0.5 µg/mL,0.31 µg/mL,0.51 µg/mL,3.51 µg/mL,0.87 µg/mL,0.39 µg/mL,0.01 µg/mL,2.28 nM,8.69e-05 s⁻¹,38200 M⁻¹ s⁻¹,0.4%,0.17 µg/mL
